Test results from patent US20050064507A1, “Determining kinase specificity” (priority 2003, published 2005).

Legend:
[1] = target: T1, PKC-zeta (Homo sapiens, UniProt Q05513); test: In vitro kinase assay: peptide phosphorylation by PKC-zeta; assay type: biochemical
T1 construct: purchased Calbiochem
T1 sequence (Q05513 1-592): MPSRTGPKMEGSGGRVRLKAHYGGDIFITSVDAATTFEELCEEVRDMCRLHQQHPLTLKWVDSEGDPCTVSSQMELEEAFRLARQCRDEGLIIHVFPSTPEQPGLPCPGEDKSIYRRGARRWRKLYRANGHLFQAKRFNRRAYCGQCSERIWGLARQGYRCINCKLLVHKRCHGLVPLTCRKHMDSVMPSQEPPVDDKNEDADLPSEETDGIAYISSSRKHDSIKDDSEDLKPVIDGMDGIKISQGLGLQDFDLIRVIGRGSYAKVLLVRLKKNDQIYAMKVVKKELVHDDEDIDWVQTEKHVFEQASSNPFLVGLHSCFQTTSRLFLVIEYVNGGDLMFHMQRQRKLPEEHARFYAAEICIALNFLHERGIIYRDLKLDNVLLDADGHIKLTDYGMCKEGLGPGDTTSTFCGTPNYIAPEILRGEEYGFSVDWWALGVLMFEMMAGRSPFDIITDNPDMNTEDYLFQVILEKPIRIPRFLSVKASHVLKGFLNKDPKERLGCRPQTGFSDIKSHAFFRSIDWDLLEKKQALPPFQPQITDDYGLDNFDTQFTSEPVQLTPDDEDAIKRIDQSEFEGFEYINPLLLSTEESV
Experimental: Catalytically active preparations of the kinases of interest were either purchased or prepared. Purchased and tested active kinase preparations including the following: PKC-alpha, PKC-delta, PKC-epsilon, PKC-zeta, PKC-mu, PKA, PKG from Calbiochem, ROK alpha/ROCK-II, active from Upstate Biotechnology, and AKT1 from Panvera.
(§1) The conditions of the kinase assay and the amount of active kinase used varied with the kinase and with the accuracy needed. For a typical experiment, 5-20 ng of kinase was used per well and each peptide pool was assayed in duplicate wells. Note that the absolute amount of kinase used was not usually a critical parameter, because the desired information related to specificity of the kinase not its absolute activity, and robustness of the assay depends on comparisons of the same amount of kinase on different peptides. The combination of kinase concentration and assay duration was modified to assure that the stoichiometry of peptide phosphorylation never exceeded 5%. The choice of kinase buffer depended on the kinase being analyzed. For studies of PKC, 100 mM HEPES, 0.05% Triton-X100, 1 mM CaCl2, 20 mM MgCl2, 0.2 mg/ml phosphatidyl serine (Avanti Polar Lipids), PMA 100 ng/ml was typically used. The lipid stock was prepared by transferring 3 mg phosphatidyl serine into iced mixture of 450 μl water plus 50 μl of 10% Triton-X100, sonicating 10 times on ice for 1 sec each.
(§2) The kinase reaction mixture was assembled by sequential addition to a tube held on ice of: 5 μl peptide (100 μM for final concentration of 10 μM), 15 μl of kinase (typically 5 ng/well, in appropriate kinase buffer), 30 μl of ATP (1 uCi/well of ^32P-gamma ATP in a stock of 167 μM cold ATP in the kinase buffer; for final concentration for 100 μM ATP). The mixture was rapidly warmed to desired reaction temperature (30° C. for PKC) and incubated for the desired duration (usually 10 minutes). The kinase assay was terminated by transfer to 4° C. water batch, and rapid addition of an equal volume (50 μl) of stop solution [0.1M ATP+0.1M EDTA in water, pH 8].
The peptides were then captured from the reaction mixture by transfer to a Reacti-Bind Streptavidin High Binding Capacity Coated Plates (HBC) (Pierce Biotechnology) as follows. The HBC plates were pre-rinsed three times with PBS/Tween PBS/Tween20 0.05% (PBS/Tween). Part of all of the reaction mixture was then transferred wells of a HBC plate pre-filled with 90 μl of phosphate-buffered saline (PBS); typically each aliquots of each phosphorylation reaction were transferred to duplicate HBC plates to assure accuracy by additional replication
For kinase assays done at the standard peptide concentration of 10 μM, the peptide concentration in the reaction mixture becomes 5 μM after addition of the stop solution; consequently 10 μl of the reaction (50 pMoles of peptide) was transferred to the HBC plate. More generally, the amount of reaction mixture transferred was estimated to be about 50 pMoles of peptide. […] The HBC plates were incubated for 0.5 to 1.5 hr at room temperature for complete binding of biotinylated peptides to plate-bound streptavidin. The HBC plates were then washed extensively with PBS/Tween. Five washes were done routinely and additional wash steps were added if the wash solution removed from the plate had measurable radioactivity as detected using a Geiger counter. This step is essential to obtaining a good the signal to noise ratio because the fraction of radioactivity incorporated in the peptides was a tiny fraction of the total in the reaction mixture. The wells were air-dried. A volume of 40-50 μl of microScint-20 (Packard Instruments) was added to each well. The plates were covered with stick-on film sheet. Radioactive emissions were measured in a TopCount NXT Microplate Scintillation and Luminescence Counter (Packard Instruments). Typically samples were counted for 5 minutes (or more) to improve the signal to noise ratio when counts were low. […]

[2] = target: T2, PKC-delta (Homo sapiens, UniProt Q05655); test: In vitro kinase assay: peptide phosphorylation by PKC-delta; assay type: biochemical
T2 construct: purchased Calbiochem
T2 sequence (Q05655 whole entry): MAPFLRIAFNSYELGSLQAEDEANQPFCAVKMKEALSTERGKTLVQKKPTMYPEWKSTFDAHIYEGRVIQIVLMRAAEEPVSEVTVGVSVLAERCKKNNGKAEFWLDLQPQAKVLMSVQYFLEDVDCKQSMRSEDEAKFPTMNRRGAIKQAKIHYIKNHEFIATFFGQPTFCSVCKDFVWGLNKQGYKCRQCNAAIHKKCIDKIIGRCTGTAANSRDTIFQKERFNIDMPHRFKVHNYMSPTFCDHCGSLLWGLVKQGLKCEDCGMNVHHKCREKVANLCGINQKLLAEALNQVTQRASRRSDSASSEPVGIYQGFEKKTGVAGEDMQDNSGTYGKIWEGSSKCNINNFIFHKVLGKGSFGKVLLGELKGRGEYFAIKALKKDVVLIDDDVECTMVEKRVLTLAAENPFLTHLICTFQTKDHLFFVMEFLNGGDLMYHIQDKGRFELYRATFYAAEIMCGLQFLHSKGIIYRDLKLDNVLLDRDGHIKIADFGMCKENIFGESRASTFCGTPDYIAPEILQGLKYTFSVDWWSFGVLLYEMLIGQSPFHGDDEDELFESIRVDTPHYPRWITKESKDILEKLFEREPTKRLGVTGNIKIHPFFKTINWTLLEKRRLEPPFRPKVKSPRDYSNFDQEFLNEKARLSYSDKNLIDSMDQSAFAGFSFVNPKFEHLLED
Excerpt: One approach to validating a substrate identification method can involve, for example, comparison of substrate sites predicted by the method with in vitro phosphorylation results obtained using the selected kinase and peptides of known sequences. Such a systematic validation has been performed for the methods described herein. For example, a panel of seventy five peptides was synthesized, the phosphorylation observed for each peptide was experimentally measured, the amount of phosphorylation was quantified, the phosphorylation results for each peptide were normalized to the phosphorylation observed with the best substrate tested and these amounts were compared with predictions made according to the invention and according to the procedures provided by others. These peptides are referred to herein as proteomic peptides because their sequences are chosen from proteins in the human proteome; unlike the test sets employed herein, these peptides include no degenerate positions
Table 2 compares the present predictions with actual measurements of phosphorylation on validating peptides. The method of synthesis of the validating peptides was as described elsewhere in the application, and each included an N-terminal linker sequence of biotinylated-Lys-dansylated-Lys-Pro-Pro-Gly (SEQ ID NO:231). The length of the remaining “core” of the validating peptides ranged from 12-21 residues with one to five S/T residues. In vitro phosphorylation of these validating peptides was measured in the manner described herein. […] In vitro phosphorylation results for the validating peptides were expressed as normalized values, namely as a percentage of phosphorylation of the best validating peptide substrate in the group.
as §1, §2
The peptides were then captured from the reaction mixture by transfer to a Reacti-Bind Streptavidin High Binding Capacity Coated Plates (HBC) (Pierce Biotechnology) as follows. The HBC plates were pre-rinsed three times with PBS/Tween PBS/Tween20 0.05% (PBS/Tween). […]

Row | Substance | phosphorylation by PKC zeta ([1]; peptide concentration 1 uM) | phosphorylation by PKC zeta ([1]; peptide concentration 10 uM) | phosphorylation by PKC-delta ([2]; peptide concentration 1 uM) | phosphorylation by PKC-delta ([2]; peptide concentration 10 uM)
1 | 161 (KYKAFIRIPIPTRRHTFRRQ) [compound 161] | 15 | 9 | 22 | 14
2 | 164 (TEGKMARVAWKGKRRSKARK) [compound 164] | 3 | 2 | 18 | 26
3 | 120 (AKRRRLSSLRASTSK) [compound 120] | 43 | 34 | 64 | 32
4 | 141 (VTDSQKRREILSRRPSYRKI) [compound 141] | 26 | 78 | 43 | 21
5 | 121 (LRRRSLRRSNSISKSPGP) [compound 121] | 60 | 56 | 80 | 53
6 | 142 (ERHVAQKKSRLRRRASQLKI) [compound 142] | 22 | 37 | 30 | 36
7 | 145 (ISDFGLAKKLAVGRHSFSRR) [compound 145] | 25 | 61 | 34 | 23
8 | 125 (PLKEKKRERKTSSKSSVRKR) [compound 125] | 13 | 12 | 46 | 36
9 | 123 (KKRFSFKKSFKLSGFSFKKN) [compound 123] | 20 | 20 | 45 | 22
10 | 136 (RARRDSLKKIEIW) [compound 136] | 6 | 9 | 41 | 23
11 | 158 (VQMTWSYPDEKNKRASVRRR) [compound 158] | 11 | 72 | 18 | 33
12 | 157 (PSPSNETPKKKKKRFSFKKS) [compound 157] | 3 | 6 | 27 | 35
13 | 131 (WKGKRRSKARKKRK) [compound 131] | 7 | 6 | 38 | 29
14 | 155 (RWDKRRWRKIPKRPGSVHRT) [compound 155] | 19 | 6 | 30 | 23
15 | 126 (KAIKAIEGGQKFARKSTRRS) [compound 126] | 46 | 56 | 47 | 43
16 | 163 (PPRTPGWHQLQPRRVSFRGE) [compound 163] | 7 | 26 | 13 | 21
17 | 156 (SAQITIPKDGQKRKKSLRKK) [compound 156] | 15 | 44 | 29 | 31
18 | 114 (KKKKRASFKRKSSKKG) [compound 114] | 45 | 51 | 80 | 100
19 | 160 (PFEVVWYKDKRQLRSSKKYK) [compound 160] | 15 | 57 | 25 | 31
20 | 119 (KKRFSFKKSFKLSGFSFKKN) [compound 119] | 20 | 20 | 42 | 16
21 | 140 (TELEGGFSRQRKRKLSFRRR) [compound 140] | 24 | 49 | 44 | 49
22 | 132 (GFLNEPLSSKSQRRKSLKLK) [compound 132] | 19 | 61 | 41 | 47
23 | 116 (EEGTFRSSIRRLSTRRR) [compound 116] | 100 | 100 | 75 | 41
24 | 129 (VQRHRSMRKTFARYLSFRRD) [compound 129] | 51 | 31 | 32 | 14
25 | 139 (RPTPGDGEKRSRIKKSKKRK) [compound 139] | 1 | 1 | 31 | 24
26 | 133 (LEKRGMLGKRPRRKSSRRKK) [compound 133] | 27 | 30 | 46 | 52
27 | 167 (GLPAPGEDKSIYRRGSRRWR) [compound 167] | 5 | 37 | 13 | 24
28 | 127 (SQVQKQRSAGSFKRNSIKKI) [compound 127] | 19 | 19 | 52 | 33
